Measurements from patent publication US20100260668A1 (published 2010).
Each block holds one binder with its values, some of them ahead of it.

Columns and labels:
[1] = biological target: T1, ErbB3 (ErbB3 ECD/FC Chimera-His tag) (UniProt P21860 20-643, limits assumed); experiment: Direct Bind ELISA, antigen on plate
T1 construct: extracellular domain; Bought reagent

DLL4 [2] = biological target: T2, DLL4 (human, UniProt Q9NR61 27-685); experiment: flow cytometry on 293G-human DLL4 cells; DLL4 VD N-terminal
T2 construct: whole, on cells; also called human DLL4

[3] = biological target: T3, human DLL4 extracellular domain (human, UniProt Q9NR61 27-529, biotin label in the Notch-1 competition ELISA (sites not given)); experiment: competition ELISA: biotin-labelled human DLL4 ECD pre-mixed with DVD-Ig, then on coated human Notch-1 (competitor Notch-1)
T3 construct: extracellular domain; also called biotin labeled human DLL4 extracellular domain

DLL4 [4] = biological target: T2, DLL4; experiment: flow cytometry on cells carrying the target, 2 ug/mL; C-terminal VD
[5] = biological target: T4, VEGF (VEGF 1-165 aa, R&D Systems 293-VE-010) (UniProt P15692 27-191); experiment: Direct bind ELISA, VEGF coated on plate; VEGF domain N-term., HC long/LC long
T4 construct: bought reagent; also called vascular endothelial growth factor

RON = biological target: T5, RON (UniProt Q04912 25-1400, limits assumed); experiment: flow cytometry on cells carrying the target, 2 ug/mL; C-terminal VD
T5 construct: whole, on cells; also called macrophage stimulating protein receptor tyrosine kinase; MSP receptor

DLL4 (DLL4 ECD/His tag) = biological target: T6, DLL4 (DLL4 ECD/His tag) (UniProt Q9NR61 27-529, limits assumed); experiment: Direct Bind ELISA, antigen on plate; C-terminal VD
T6 construct: extracellular domain; Bought reagent

PlGF (Placental GF) = biological target: T7, PlGF (Placental GF) (UniProt P49763-2 21-149, limits assumed); experiment: Direct Bind ELISA, antigen on plate; N-terminal VD
T7 construct: Bought reagent
T7 sequence (looked up): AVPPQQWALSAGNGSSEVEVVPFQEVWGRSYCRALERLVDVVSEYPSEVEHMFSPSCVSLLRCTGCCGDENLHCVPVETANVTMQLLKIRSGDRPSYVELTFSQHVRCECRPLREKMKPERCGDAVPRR

T4 sequence (P15692 other isoform, or with tags, fused parts or gaps limits assumed): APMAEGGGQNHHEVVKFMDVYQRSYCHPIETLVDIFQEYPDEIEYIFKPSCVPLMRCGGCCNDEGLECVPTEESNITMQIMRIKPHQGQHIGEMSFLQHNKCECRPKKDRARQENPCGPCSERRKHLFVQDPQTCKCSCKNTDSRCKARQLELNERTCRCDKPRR

B1: AB063 (anti-ErbB3 (seq. 2) parent antibody) (antibody, IgG1, V domains shown)
VH: EVQLVESGGGLVQPGGSLRLSCAASGFTFSIYSMNWVRQAPGKGLEWVSYISSSSSTIYYADSVKGRFTISRDNAKNSLYLQMNSLRDEDTAVYYCARDRGDFDAFDIWGQGTMVTVSS
VL: DIQMTQSPSSLSASVGDRVTITCQASQDITNYLNWYQQKPGKAPKLLIYDASNLETGVPSRFSGSGSGTDFTFTISSLQPEDIATYNCQQCENFPITFGQGTRLEIKR
notes: HC vector V1 (wild-type hIgG1 constant), LC vector V2 (kappa constant); also called AB063VH; AB063VL
EC50 [1]: 0.28 nM

B2: AB062 (anti-ErbB3 (seq. 1) parent antibody) (antibody, IgG1, V domains shown)
VH: QVQLQQWGAGLLKPSETLSLTCAVYGGSFSGYYWSWIRQPPGKGLEWIGEINHSGSTNYNPSLKSRVTISVETSKNQFSLKLSSVTAADTAVYYCARDKWTWYFDLWGRGTLVTVSS
VL: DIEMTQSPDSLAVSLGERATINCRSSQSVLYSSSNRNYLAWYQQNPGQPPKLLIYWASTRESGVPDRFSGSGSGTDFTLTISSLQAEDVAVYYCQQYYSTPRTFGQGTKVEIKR
notes: HC vector V1 (wild-type hIgG1 constant), LC vector V2 (kappa constant); also called AB062VH; AB062VL
EC50 [1]: 1.93 nM

B5: DVD258 (bispecific antibody, human IgG1, kappa)
heavy: not shown
light: DIVLTQSPDSLAVSLGERVTMNCKSSQSLLNSGMRKSFLAWYQQKPGQSPKLLIYWASTRESGVPDRFTGSGSGTDFTLTISSVQAEDVAVYYCKQSYHLFTFGSGTKLEIKRTVAAPDIQMTQSPSSLSASVGDRVTITCRASQDVSTAVAWYQQKPGKAPKLLIYSASFLYSGVPSRFSGSGSGTDFTLTISSLQPEDFATTYYCQQSYTGTVTFGQGTKVEIKRTVAAPSVFIFPPSDEQLKSGTASVVCLLNNFYPREAKVQWKVDNALQSGNSQESVTEQDSKDSTYSLSSTLTLSKADYEKHKVYACEVTHQGLSSPVTKSFNRGEC
notes: DVD-Ig; outer AB047 (PlGF), inner AB015 (DLL4); also called PlGF and DLL4 DVD-Ig
FACS Geometric Mean C-terminal (DLL4 [4]): 5.57

B6: DVD496 (bispecific antibody, human IgG1, kappa)
heavy: not shown
light: DIQMTQSPSSLSASVGDRVTITCRASQDVSTAVAWYQQKPGKAPKLLIYSASFLYSGVPSRFSGSGSGTDFTLTISSLQPEDFATYYCQQSYTTPPTFGQGTKVEIKRTVAAPSVFIFPPDIQMTQSSSYLSVSLGGRVTITCKASDHINNWLAWYQQKPGNAPRLLISGATSLETGVPSRFSGSGSGKDYTLSITSLQTEDVATYYCQQYWSIPLTFGAGTKLELKRTVAAPSVFIFPPSDEQLKSGTASVVCLLNNFYPREAKVQWKVDNALQSGNSQESVTEQDSKDSTYSLSSTLTLSKADYEKHKVYACEVTHQGLSSPVTKSFNRGEC
notes: DVD-Ig; N-term; AB070 (VEGF), C-term; AB072 (DLL4); HC linker long, LC linker long; also called DVD-Ig DVD496; DVD496H/DVD496L
EC50 [5]: 108 nM

B7: DVD034 (bispecific antibody, human IgG1, kappa)
heavy: not shown
light: DIQMTQSPSSVSASVGDRVTITCRASQGISSWLAWYQQKPGKAPNLLIYEASSLQSGVPSRFGGSGSGTDFTLTISSLQPEDFATYYCQQANGFPWTFGQGTKVEIKRTVAAPDVVMTQSPLSLPVTPGEPASISCRSSQSLLHSNGFNYVDWYLQKPGQSPHLLIYFGSYRASGVPDRFSGSGSGTDFTLKISRVEAEDVGVYYCMQALQTPPWTFGQGTKVEIRRTVAAPSVFIFPPSDEQLKSGTASVVCLLNNFYPREAKVQWKVDNALQSGNSQESVTEQDSKDSTYSLSSTLTLSKADYEKHKVYACEVTHQGLSSPVTKSFNRGEC
notes: DVD-Ig; outer AB012 (HGF), inner AB005 (RON); also called HGF and RON DVD-Ig
FACS Geometric Mean C-terminal (RON): 0.39

B9: DVD047 (bispecific antibody, human IgG1, kappa)
heavy: not shown
light: DIQMTQSPSSLSASVGDRVTITCSASQDISNYLNWYQQKPGKAPKVLIYFTSSLHSGVPSRFSGSGSGTDFTLTISSLQPEDFATYYCQQYSTVPWTFGQGTKVEIKRTVAAPDVVMTQSPLSLPVTPGEPASISCRSSQSLLHSNGFNYVDWYLQKPGQSPHLLIYFGSYRASGVPDRFSGSGSGTDFTLKISRVEAEDVGVYYCMQALQTPPWTFGQGTKVEIRRTVAAPSVFIFPPSDEQLKSGTASVVCLLNNFYPREAKVQWKVDNALQSGNSQESVTEQDSKDSTYSLSSTLTLSKADYEKHKVYACEVTHQGLSSPVTKSFNRGEC
notes: DVD-Ig; also called VEGF and RON DVD-Ig
FACS Geometric Mean C-terminal (RON): 0.51

B10: DVD043 (VEGF (seq. 1) N-terminal / DLL4 (seq. 1) C-terminal DVD-Ig) (bispecific antibody, human IgG1, kappa)
heavy: not shown
light: DIQMTQSPSSLSASVGDRVTITCSASQDISNYLNWYQQKPGKAPKVLIYFTSSLHSGVPSRFSGSGSGTDFTLTISSLQPEDFATYYCQQYSTVPWTFGQGTKVEIKRTVAAPDIQMTQSPSSLSASVGDRVTITCRASQDVSTAVAWYQQKPGKAPKLLIYSASFLYSGVPSRFSGSGSGTDFTLTISSLQPEDFATTYYCQQSYTGTVTFGQGTKVEIKRTVAAPSVFIFPPSDEQLKSGTASVVCLLNNFYPREAKVQWKVDNALQSGNSQESVTEQDSKDSTYSLSSTLTLSKADYEKHKVYACEVTHQGLSSPVTKSFNRGEC
notes: also called DVD043H/DVD043L
IC50 [3]: 13.1 nM

B11: DVD043 (bispecific antibody, human IgG1, kappa)
heavy: not shown
light: B10 light
notes: DVD-Ig; also called VEGF and DLL4 DVD-Ig
FACS Geometric Mean C-terminal (DLL4 [4]): 68.4

B13: DVD498 (bispecific antibody, human IgG1, kappa)
heavy: not shown
light: DIQMTQSPSSLSASVGDRVTITCRASQVIRRSLAWYQQKPGKAPKLLIYAASNLASGVPSRFSGSGSGTDFTLTISSLQPEDFATYYCQQSNTSPLTFGQGTKVEIKRTVAAPSVFIFPPDIQMTQSSSYLSVSLGGRVTITCKASDHINNWLAWYQQKPGNAPRLLISGATSLETGVPSRFSGSGSGKDYTLSITSLQTEDVATYYCQQYWSIPLTFGAGTKLELKRTVAAPSVFIFPPSDEQLKSGTASVVCLLNNFYPREAKVQWKVDNALQSGNSQESVTEQDSKDSTYSLSSTLTLSKADYEKHKVYACEVTHQGLSSPVTKSFNRGEC
notes: DVD-Ig; N-term; AB071 (VEGF), C-term; AB072 (DLL4); HC linker long, LC linker long; also called DVD-Ig DVD498; DVD498H/DVD498L
EC50 [5]: 30.6 nM

Continued, values first:

EC50 (DLL4 [2]): 1.13 nM
B3: DVD471 (bispecific antibody, human IgG1, kappa, L234A L235A)
heavy: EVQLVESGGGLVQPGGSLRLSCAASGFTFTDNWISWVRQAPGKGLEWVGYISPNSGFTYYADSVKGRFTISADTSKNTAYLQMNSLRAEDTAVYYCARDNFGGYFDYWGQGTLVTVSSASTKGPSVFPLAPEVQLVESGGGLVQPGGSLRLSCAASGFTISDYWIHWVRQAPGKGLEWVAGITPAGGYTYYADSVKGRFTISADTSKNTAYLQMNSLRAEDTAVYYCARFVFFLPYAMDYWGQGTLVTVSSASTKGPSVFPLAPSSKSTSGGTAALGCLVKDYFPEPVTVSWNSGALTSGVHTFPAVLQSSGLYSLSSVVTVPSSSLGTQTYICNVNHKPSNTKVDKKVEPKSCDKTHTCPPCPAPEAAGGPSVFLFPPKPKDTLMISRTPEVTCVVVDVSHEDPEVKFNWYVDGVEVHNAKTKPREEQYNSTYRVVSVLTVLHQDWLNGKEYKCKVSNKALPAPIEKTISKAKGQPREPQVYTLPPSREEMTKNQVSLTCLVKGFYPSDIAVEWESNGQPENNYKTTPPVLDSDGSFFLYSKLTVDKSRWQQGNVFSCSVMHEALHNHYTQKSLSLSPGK
light: DIQMTQSPSSLSASVGDRVTITCRASQDVSTAVAWYQQKPGKAPKLLIYSASFLYSGVPSRFSGSGSGTDFTLTISSLQPEDFATTYYCQQSYTGTVTFGQGTKVEIKRTVAAPSVFIFPPDIQMTQSPSSLSASVGDRVTITCRASQDVSTAVAWYQQKPGKAPKLLIYSASFLYSGVPSRFSGSGSGTDFTLTISSLQPEDFATYYCQQSYTTPPTFGQGTKVEIKRTVAAPSVFIFPPSDEQLKSGTASVVCLLNNFYPREAKVQWKVDNALQSGNSQESVTEQDSKDSTYSLSSTLTLSKADYEKHKVYACEVTHQGLSSPVTKSFNRGEC
notes: DVD-Ig; also called DLL4 and VEGF DVD-Ig, HC linker long, LC linker long

IC50 [3]: 17.5 nM
B4: DVD258 (PLGF (seq. 1) N-terminal / DLL-4 (seq. 1) C-terminal DVD-Ig) (bispecific antibody, human IgG1, kappa)
heavy: not shown
light: B5 light
notes: also called VD258H; VD258L

EC50 (DLL4 (DLL4 ECD/His tag)): 2.3 nM | EC50 (PlGF (Placental GF)): 0.08 nM
B8: DVD258 (PLGF (seq. 1) and DLL-4 (seq. 1) DVD-Ig) (bispecific antibody, IgG1)
VH: QVQLQQSGAELVKPGASVKISCKASGYTFTDYYINWVKLAPGQGLEWIGWIYPGSGNTKYNEKFKGKATLTIDTSSSTAYMQLSSLTSEDTAVYFCVRDSPFFDYWGQGTLLTVSSASTKGPEVQLVESGGGLVQPGGSLRLSCAASGFTFTDNWISWVRQAPGKGLEWVGYISPNSGFTYYADSVKGRFTISADTSKNTAYLQMNSLRAEDTAVYYCARDNFGGYFDYWGQGTLVTVSS
VL: DIVLTQSPDSLAVSLGERVTMNCKSSQSLLNSGMRKSFLAWYQQKPGQSPKLLIYWASTRESGVPDRFTGSGSGTDFTLTISSVQAEDVAVYYCKQSYHLFTFGSGTKLEIKRTVAAPDIQMTQSPSSLSASVGDRVTITCRASQDVSTAVAWYQQKPGKAPKLLIYSASFLYSGVPSRFSGSGSGTDFTLTISSLQPEDFATTYYCQQSYTGTVTFGQGTKVEIKR
notes: Outer AB047, inner AB015; HC vector V1 (wild-type hIgG1 constant), LC vector V2 (kappa constant); also called VD258H; VD258L

EC50 (DLL4 [2]): 0.89 nM
B12: DVD485 (bispecific antibody, human IgG1, kappa)
heavy: not shown
light: DIQMTQSPSSLSASVGDRVTITCRASQDVSTAVAWYQQKPGKAPKLLIYSASFLYSGVPSRFSGSGSGTDFTLTISSLQPEDFATTYYCQQSYTGTVTFGQGTKVEIKRTVAAPSVFIFPPDIQMTQSPSSLSASVGDRVTITCRASQVIRRSLAWYQQKPGKAPKLLIYAASNLASGVPSRFSGSGSGTDFTLTISSLQPEDFATYYCQQSNTSPLTFGQGTKVEIKRTVAAPSVFIFPPSDEQLKSGTASVVCLLNNFYPREAKVQWKVDNALQSGNSQESVTEQDSKDSTYSLSSTLTLSKADYEKHKVYACEVTHQGLSSPVTKSFNRGEC
notes: DVD-Ig; outer AB015 (DLL4), inner AB071 (VEGF); also called DLL4 and VEGF DVD-Ig, HC linker short, LC linker long

EC50 (PlGF (Placental GF)): 0.12 nM
B14: DVD260 (PLGF (seq. 1) and VEGF (seq. 1) DVD-Ig) (bispecific antibody, IgG1)
VH: QVQLQQSGAELVKPGASVKISCKASGYTFTDYYINWVKLAPGQGLEWIGWIYPGSGNTKYNEKFKGKATLTIDTSSSTAYMQLSSLTSEDTAVYFCVRDSPFFDYWGQGTLLTVSSASTKGPEVQLVESGGGLVQPGGSLRLSCAASGYTFTNYGMNWVRQAPGKGLEWVGWINTYTGEPTYAADFKRRFTFSLDTSKSTAYLQMNSLRAEDTAVYYCAKYPHYYGSSHWYFDVWGQGTLVTVSS
VL: DIVLTQSPDSLAVSLGERVTMNCKSSQSLLNSGMRKSFLAWYQQKPGQSPKLLIYWASTRESGVPDRFTGSGSGTDFTLTISSVQAEDVAVYYCKQSYHLFTFGSGTKLEIKRTVAAPDIQMTQSPSSLSASVGDRVTITCSASQDISNYLNWYQQKPGKAPKVLIYFTSSLHSGVPSRFSGSGSGTDFTLTISSLQPEDFATYYCQQYSTVPWTFGQGTKVEIKR
notes: HC vector V1 (wild-type hIgG1 constant), LC vector V2 (kappa constant); also called VD260H; VD260L
